Data on nine sequences can be found in patent publication US20070117112.

For data set [1], the target named is T7 RNA polymerase Y639L/H784A/K378R (LAR) (Bacteriophage T7) (UniProt P00573). The conditions noted are these: 2'-OMe NTPs.
The target is the same in data set [2]. Particulars: 15 mL 2'-OMe NTP transcription, 8 mM MgCl2, 2.5 mM MnCl2.
Data set [3] concerns the target T7 RNA polymerase P266L/Y639L/H784A/K378R (LLAR) (Bacteriophage T7) (UniProt P00573). Particulars: 2'-OMe NTP transcription; at 2.6 ug/ml enzyme (130 at 11, 13 at 0.66, 8.3 at 0.16 ug/ml); template made with 5' poly-A extended primer.
The target of data set [4] is T7 RNA polymerase Y639L/H784A/K378R (LAR) (Bacteriophage T7) (UniProt P00573). Particulars: 2'-OMe NTP transcription; 2.1 ug/ml enzyme, 8 mM MgCl2, 2.5 mM MnCl2, 37 C; template made with 5' poly-A extended primer.

Where two headings read alike, the source gives them in different places.

The sequence “TAATACGACTCACTATAGGAGCCTTCCTCCGGANNNNNNNNNNNNNNNNNNNNNNNNNNNNNNNNNNNNNNNNTCCGGTTTCCCGAGCTT (double strand) [Template 6]” came in with an activity (% relative yield) in data set [1] (listed as Pool 2, relative to Pool 4) of 88.

In data set [2], “TAATACGACTCACTATAGGGAGAATTCCGACCACAAGNNNNNNNNNNNNNNNNNNNNNNNNNNNNNNNNNNNNNNNNCATATGTGCGTCTACATGGATCCTCA (double strand) [Template 4]” registered an activity (nmol transcript) of 27.8.

In the case of “TAATACGACTCACTATAGGGAGAATTCCGACCAGAAGCTTNNNNNNNNNNNNNNNNNNNNNNNNNNNNNNNNNNNNNNNNCATATGTGCGTCTACATGGATCCTCA (double strand) [Template 1]”, the activity (nmol transcript) in data set [2] was determined as 18.7.

Take “TAATACGACTCACTATAGGGAGACAAGAATAAACGCTCAANNNNNNNNNNNNNNNNNNNNNNNNNNNNNNNNNNNNNNNNTTCGACAGGAGGCTCACAACAGGC (double strand) [Template 7]”: in data set [1] (listed as Pool 3, relative to Pool 4), the activity (% relative yield) was determined as 130.

“TAATACGACTCACTATAGGGAGAGACAAGCTTGGGTCNNNNNNNNNNNNNNNNNNNNNNNNNNNNNNNNNNNNNNNNAGAAGAGAAAGAGAAGTTAATTAAGGATCCTCAG (double strand) [Template 3]”: the activity (nmol transcript) in data set [2] worked out at 20.2.

Sequence “TAATACGACTCACTATAGGGAGAGCGGAAGCCGTGCTGGGGCCNNNNNNNNNNNNNNNNNNNNNNNNNNNNNNNNNNNNNNNNCATAACCCAGAGGTCGATGGATC (double strand) [Template 2]” gave an activity (nmol transcript) in data set [2] of 17.4.

For the sequence “TAATACGACTCACTATAGGGCCTTGTAGCGTGCATTCTTGNNNNNNNNNNNNNNNNNNNNNNNNNNNNNNCTAACATACTCCGAATCTGTCGAA (double strand) [Template 5]”, the activity (% relative yield) in data set [1] (listed as Pool 1, relative to Pool 4) is 80.

“TAATACGACTCACTATAGGGGAGTACAATAACCAGACATNNNNNNNNNNNNNNNNNNNNNNNNNNNNNNGGATCGTTACGACTAGCATCGATG (double strand) [Template 8]” yielded an activity (% relative yield) in data set [1] (listed as Pool 4 (reference)) of 100.

Consider “TAATACGACTCACTATAGGGGAGTACAATAACGTTCTCGNNNNNNNNNNNNNNNNNNNNNNNNNNNNNNGGATCGTTACGACTAGCATCGATG (double strand) [ARC2118 template library]”, for which the activity (% normalized yield) in data set [3] worked out at 65; in data set [4], 100.
